Measured values: article PMC9307175 (PLoS Pathogens, 2022)

T1: Flag- and His6-tagged STAT1, bacterially expressed (pET-Flag-STAT1-His6) (human, UniProt P42224 1-750)
T1 construct: also called STAT1 (Flag-tagged); recombinant STAT1; source: E. coli BL21(DE3), purified (Ni-NTA)
T1 sequence: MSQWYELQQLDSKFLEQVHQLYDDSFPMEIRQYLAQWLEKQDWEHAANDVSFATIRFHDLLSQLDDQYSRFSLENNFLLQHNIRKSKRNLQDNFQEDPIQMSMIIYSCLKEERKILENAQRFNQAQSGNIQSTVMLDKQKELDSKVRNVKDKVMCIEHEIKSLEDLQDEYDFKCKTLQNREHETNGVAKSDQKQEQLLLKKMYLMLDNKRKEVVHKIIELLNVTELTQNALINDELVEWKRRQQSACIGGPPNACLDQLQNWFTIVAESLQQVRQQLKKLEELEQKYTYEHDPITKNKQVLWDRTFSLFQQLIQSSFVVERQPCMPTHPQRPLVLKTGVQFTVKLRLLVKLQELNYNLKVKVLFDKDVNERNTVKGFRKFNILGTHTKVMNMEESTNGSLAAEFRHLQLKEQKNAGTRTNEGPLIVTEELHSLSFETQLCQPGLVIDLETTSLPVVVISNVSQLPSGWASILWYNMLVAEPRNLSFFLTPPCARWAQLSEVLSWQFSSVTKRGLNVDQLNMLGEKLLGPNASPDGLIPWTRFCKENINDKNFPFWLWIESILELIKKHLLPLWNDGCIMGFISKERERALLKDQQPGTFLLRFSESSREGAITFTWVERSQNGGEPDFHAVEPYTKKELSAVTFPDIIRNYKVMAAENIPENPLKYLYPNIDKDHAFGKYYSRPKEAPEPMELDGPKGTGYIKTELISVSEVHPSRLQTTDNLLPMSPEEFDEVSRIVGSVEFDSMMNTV

B1: Flag-tagged STAT1 (pCEBZ-STAT1-SF) (natural protein)
chain: T1 sequence
notes: also called STAT1-Flag
B2: Flag- and His6-tagged IRF9, bacterially expressed (pET-Flag-IRF9-His6) (natural protein)
chain: MASGRARCTRKLRNWVVEQVESGQFPGVCWDDTAKTMFRIPWKHAGKQDFREDQDAAFFKAWAIFKGKYKEGDTGGPAVWKTRLRCALNKSSEFKEVPERGRMDVAEPYKVYQLLPPGIVSGQPGTQKVPSKRQHSSVSSERKEEEDAMQNCTLSPSVLQDSLNNEEEGASGGAVHSDIGSSSSSSSPEPQEVTDTTEAPFQGDQRSLEFLLPPEPDYSLLLTFIYNGRVVGEAQVQSLDCRLVAEPSGSESSMEQVLFPKPGPLEPTQRLLSQLERGILVASNPRGLFVQRLCPIPISWNAPQAPPGPGPHLLPSNECVELFRTAYFCRDLVRYFQGLGPPPKFQVTLNFWEESHGSSHTPQNLITVKMEQAFARYLLEQTPEQQAAILSLV
notes: also called IRF9 (Flag-tagged); recombinant IRF9; source: E. coli BL21(DE3), purified (Ni-NTA)
B3: S-peptide and His6 dually-tagged vIRF-1, bacterially expressed (pET-S-vIRF-1-His6) (natural protein)
chain: MDPGQRPNPFGAPGAIPKKPCLSQGSPGTSGSGAPCDEPSRSESPGEGPSGTGGSAAAGDITRQAVVAAITEWSRTRQLRISTGASEGKASIKDWIVCQVNSGKFPGVEWEDEERTRFRIPVTPLADPCFEWRRDGELGVVYIRERGNMPVDASFKGTRGRRRMLAALRRTRGLQEIGKGISQDGHHFLVFRVRKPEEEQCVECGVVAGAVHDFNNMARLLQEGFFSPGQCLPGEIVTPVPSCTTAEGQEAVIDWGRLFIRMYYNGEQVHELLTTSQSGCRISSALRRDPAVHYCAVGSPGQVWLPNVPNLACEIAKRELCDTLDACAKGILLTSSCNGIFCVCYHNGPVHFIGNTVPPDSGPLLLPQGKPTRIFNPNTFLVGLANSPLPAPSHVTCPLVKLWLGKPVAVGKLEPHAPSPRDFAARCSNFSDACVVLEIMPKPLWDAMQ
notes: source: E. coli BL21(DE3), purified (Ni-NTA)
B4: StrepII+Flag (SF)-tagged vIRF-1 (natural protein)
chain: B3 chain

Assays:
[1] = target: T2, chitin-binding domain (CBD)-tagged STAT2 (human (HeLa cDNA library), UniProt P52630 1-851); assay: co-IP; conditions: partners not purified
T2 construct: also called STAT2-CBD; CBD-fused STAT2
T2 sequence (P52630 whole entry, the tested form may be a part): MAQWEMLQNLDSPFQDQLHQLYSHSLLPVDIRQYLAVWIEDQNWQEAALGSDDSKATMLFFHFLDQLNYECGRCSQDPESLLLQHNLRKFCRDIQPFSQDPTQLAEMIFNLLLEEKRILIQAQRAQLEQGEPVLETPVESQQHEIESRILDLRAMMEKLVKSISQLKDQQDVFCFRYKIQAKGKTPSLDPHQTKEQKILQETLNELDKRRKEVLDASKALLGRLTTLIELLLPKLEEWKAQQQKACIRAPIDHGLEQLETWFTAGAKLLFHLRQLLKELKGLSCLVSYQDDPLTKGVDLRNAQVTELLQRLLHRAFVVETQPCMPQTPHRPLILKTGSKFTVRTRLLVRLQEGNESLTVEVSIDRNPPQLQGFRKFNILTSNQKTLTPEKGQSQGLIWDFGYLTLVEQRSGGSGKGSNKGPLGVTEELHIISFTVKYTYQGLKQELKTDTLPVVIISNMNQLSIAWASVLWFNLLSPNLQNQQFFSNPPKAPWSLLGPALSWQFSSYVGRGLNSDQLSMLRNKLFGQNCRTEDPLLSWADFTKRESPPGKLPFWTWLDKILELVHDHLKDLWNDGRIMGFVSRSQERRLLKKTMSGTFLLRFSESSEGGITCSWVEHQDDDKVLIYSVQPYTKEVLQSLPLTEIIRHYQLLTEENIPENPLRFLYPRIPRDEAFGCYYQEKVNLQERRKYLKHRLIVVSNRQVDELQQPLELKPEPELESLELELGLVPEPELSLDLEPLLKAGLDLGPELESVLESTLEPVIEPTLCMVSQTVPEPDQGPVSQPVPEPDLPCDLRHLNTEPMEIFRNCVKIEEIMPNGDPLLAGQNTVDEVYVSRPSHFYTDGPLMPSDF

[2] = target: B3; assay: pull-down; conditions: both partners purified
[3] = target: T1, Flag- and His6-tagged STAT1, …; assay: pull-down; conditions: both partners purified
[4] = target: T3, Flag- and His6-tagged STAT2, bacterially expressed (pET-Flag-STAT2-His6) (human, UniProt P52630 1-851); assay: pull-down; conditions: both partners purified
T3 construct: also called STAT2 (Flag-tagged); recombinant STAT2; source: E. coli BL21(DE3), purified (Ni-NTA)
T3 sequence (P52630 whole entry): as the sequence (P52630 whole entry, the tested form may be a part) above

B1
binding result [1]: binds

B2
binding result [2]: binds

B3
binding result [3]: binds
binding result [4]: binds

B4
binding result [1]: binds
